# Assay results published in patent US20130273029A1 (Novartis, published 2013).
# Experiments:
# [1] = target: T1, Human HER3, endogenous, on human cancer cell lines (SK-Br-3, MCF7, BT-474) (human, UniProt P21860 20-1342); assay: cell-based or functional assay
# [2] = target: T2, Hu HER3: CD33-[Human HER3, residues 20-640]-TAG (human, UniProt P21860 20-640); assay: SET, IgG vs soluble HER3-Tag
# T2 construct: also called hu HER3-Tag; HER3-Tag; not shown: C-terminal TAG (e.g., FLAG TAG)
# Protocol: Affinity determination in solution was essentially performed as previously described (Friguet et al., (1985) J Immunol Methods 77:305-19). In order to improve the sensitivity and accuracy of the SET method, it was transferred from classical ELISA to ECL based technology (Haenel et al., (2005) Anal Biochem 339:182-84).
# The data was evaluated with XLfit software (ID Business Solutions) applying customized fitting models.
# Antibody affinity was determined by solution equilibrium titration (SET) as described above. The results are summarized in Table 3 and example titration curves for MOR12616 and MOR12925 are contained in FIG. 1.
# [3] = target: T1, Human HER3, endogenous, on human cancer …; assay: cell-based or functional assay; remark: listed apart in the source
# [4] = target: T1, Human HER3, endogenous, on human cancer …; assay: cell-based or functional assay; remark: listed apart in the source
# T1 sequence (P21860 20-1342): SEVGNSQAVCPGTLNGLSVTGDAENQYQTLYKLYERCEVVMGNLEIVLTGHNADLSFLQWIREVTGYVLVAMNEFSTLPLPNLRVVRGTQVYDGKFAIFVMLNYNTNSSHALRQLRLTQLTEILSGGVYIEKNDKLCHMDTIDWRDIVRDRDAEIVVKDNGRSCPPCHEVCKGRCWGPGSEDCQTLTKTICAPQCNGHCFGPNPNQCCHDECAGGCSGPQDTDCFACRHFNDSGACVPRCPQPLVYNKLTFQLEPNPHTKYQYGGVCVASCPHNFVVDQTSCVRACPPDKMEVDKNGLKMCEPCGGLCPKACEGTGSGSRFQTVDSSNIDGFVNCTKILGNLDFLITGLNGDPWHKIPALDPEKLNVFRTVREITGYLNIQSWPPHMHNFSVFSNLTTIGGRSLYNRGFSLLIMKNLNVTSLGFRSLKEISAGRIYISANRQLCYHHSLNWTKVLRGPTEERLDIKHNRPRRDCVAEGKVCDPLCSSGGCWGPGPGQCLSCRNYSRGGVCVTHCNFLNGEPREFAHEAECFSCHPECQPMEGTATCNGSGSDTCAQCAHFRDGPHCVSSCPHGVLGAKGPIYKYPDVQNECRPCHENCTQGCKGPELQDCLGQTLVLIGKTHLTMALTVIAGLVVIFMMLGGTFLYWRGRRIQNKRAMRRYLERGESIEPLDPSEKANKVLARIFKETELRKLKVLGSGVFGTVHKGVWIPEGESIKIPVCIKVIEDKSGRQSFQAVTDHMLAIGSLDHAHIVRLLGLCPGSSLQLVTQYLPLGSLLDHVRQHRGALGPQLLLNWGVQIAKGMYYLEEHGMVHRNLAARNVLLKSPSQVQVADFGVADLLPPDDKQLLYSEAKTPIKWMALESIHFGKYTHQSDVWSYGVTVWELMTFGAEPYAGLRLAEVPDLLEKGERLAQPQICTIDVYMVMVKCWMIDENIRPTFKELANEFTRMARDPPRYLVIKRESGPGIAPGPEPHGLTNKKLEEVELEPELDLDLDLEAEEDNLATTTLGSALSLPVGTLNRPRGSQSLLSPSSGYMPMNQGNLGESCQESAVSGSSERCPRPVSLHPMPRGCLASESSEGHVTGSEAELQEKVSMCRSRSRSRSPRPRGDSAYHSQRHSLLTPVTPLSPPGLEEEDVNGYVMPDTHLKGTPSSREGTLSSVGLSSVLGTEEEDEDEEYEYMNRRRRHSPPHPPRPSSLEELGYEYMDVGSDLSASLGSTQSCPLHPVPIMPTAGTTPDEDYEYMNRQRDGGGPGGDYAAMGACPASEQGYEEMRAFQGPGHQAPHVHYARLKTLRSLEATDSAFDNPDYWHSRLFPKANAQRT
# T2 sequence (P21860 20-640): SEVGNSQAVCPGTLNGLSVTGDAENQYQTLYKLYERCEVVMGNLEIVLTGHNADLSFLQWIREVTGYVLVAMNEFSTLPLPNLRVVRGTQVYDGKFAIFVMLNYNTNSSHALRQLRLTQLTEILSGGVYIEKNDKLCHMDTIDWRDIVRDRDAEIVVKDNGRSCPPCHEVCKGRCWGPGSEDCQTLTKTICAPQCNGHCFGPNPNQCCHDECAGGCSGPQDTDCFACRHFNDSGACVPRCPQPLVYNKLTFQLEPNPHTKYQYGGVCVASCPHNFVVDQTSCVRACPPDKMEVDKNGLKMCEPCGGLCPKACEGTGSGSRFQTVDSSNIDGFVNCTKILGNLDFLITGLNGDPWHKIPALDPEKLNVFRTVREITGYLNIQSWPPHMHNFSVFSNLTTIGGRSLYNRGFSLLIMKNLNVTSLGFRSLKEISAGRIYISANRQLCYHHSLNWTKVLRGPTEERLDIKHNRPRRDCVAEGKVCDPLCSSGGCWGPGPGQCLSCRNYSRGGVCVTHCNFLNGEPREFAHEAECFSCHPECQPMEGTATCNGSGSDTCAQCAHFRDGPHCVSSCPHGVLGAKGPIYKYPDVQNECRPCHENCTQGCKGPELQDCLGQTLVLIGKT
Binder,BT-474 proliferation % inhibition [1],BT-474 proliferation IC50 [1],MCF7 proliferation % inhibition [1],MCF7 proliferation IC50 [1],SK-Br-3 proliferation % inhibition [1],SK-Br-3 proliferation IC50 [1],Kd [2],BT-474 pAkt (S473) % inhibition [3],BT-474 pAkt (S473) IC50 [3],MCF7 pAkt (S473) % inhibition [3],MCF7 pAkt (S473) IC50 [3],SK-Br-3 pAkt (S473) % inhibition [3],SK-Br-3 pAkt (S473) IC50 [3],BT474 pHER3 % inhibition [4],BT474 pHER3 IC50 [4],MCF7 pHER3 % inhibition [4],MCF7 pHER3 IC50 [4],SK-Br-3 pHER3 % inhibition [4],SK-Br-3 pHER3 IC50 [4]
"MOR13759 (antibody, human IgG1, kappa, V domains shown, tested as IgG) VH: QVQLVQSGAEVKKPGESLKISCKGSGYSFTTTWVAWVRQMPGKGLEWMGIIYPGLSDTIYSPSFQGQVTISADKSISTAYLQWSSLKASDTAMYYCARVHIIQPPSAWSYNAMDVWGQGTLVTVSS VL: DIQMTQSPSSLSASVGDRVTITCRASQSISTYLNWYQQKPGKAPKLLIFGASNLQSGVPSRFSGSGSGTDFTLTISSLQPEDFATYYCQQSITELFTFGQGTKVEIKR",35%,6.26 nM,49%,0.151 nM,41%,0.23 nM,0.051 nM,81%,274 pM,76%,248 pM,91%,60 pM,70%,431 pM,74%,277 pM,77%,124 pM
"MOR13761 (antibody, human IgG1, kappa, V domains shown, tested as IgG) VH: QVQLVQSGAEVKKPGESLKISCKGSGYSFTQTWVAWVRQMPGKGLEWMGIIYPGQSDTIYSPSFQGQVTISADKSISTAYLQWSSLKASDTAMYYCARVHIIQPPSAWSYNAMDVWGQGTLVTVSS VL: DIQMTQSPSSLSASVGDRVTITCRASQSISTYLNWYQQKPGKAPKLLIFGASNLQSGVPSRFSGSGSGTDFTLTISSLQPEDFATYYCQQSITELFTFGQGTKVEIKR",36%,0.56 nM,,,48%,0.134 nM,0.028 nM,83%,,,,86%,52 pM,56%,364 pM,,,76%,62 pM
"MOR13763 (antibody, human IgG1, kappa, V domains shown, tested as IgG) VH: QVQLVQSGAEVKKPGESLKISCKGSGYSFTSYWVAWVRQMPGKGLEWMGIIYPGQSDTIYSPSFQGQVTISADKSISTAYLQWSSLKASDTAMYYCARVHIIQPPSAWSYNAMDVWGQGTLVTVSS VL: DIQMTQSPSSLSASVGDRVTITCRASQSISTYLNWYQQKPGKAPKLLIFGASNLQSGVPSRFSGSGSGTDFTLTISSLQPEDFATYYCQQSITELFTFGQGTKVEIKR",36%,0.671 nM,,,49%,0.326 nM,0.027 nM,76%,378 pM,,,84%,76 pM,60%,19500 pM,,,77%,107 pM
"MOR13762 (antibody, human IgG1, kappa, V domains shown, tested as IgG) VH: QVQLVQSGAEVKKPGESLKISCKGSGYSFTNTWVAWVRQMPGKGLEWMGIIYPGQSDTIYSPSFQGQVTISADKSISTAYLQWSSLKASDTAMYYCARVHIIQPPSAWSYNAMDVWGQGTLVTVSS VL: DIQMTQSPSSLSASVGDRVTITCRASQSISTYLNWYQQKPGKAPKLLIFGASNLQSGVPSRFSGSGSGTDFTLTISSLQPEDFATYYCQQSITELFTFGQGTKVEIKR",37%,0.546 nM,,,45%,0.053 nM,0.025 nM,86%,291 pM,,,86%,63 pM,41%,271 pM,,,70%,90 pM
